Measured values as given in publication PMC12862363, “AURKB-driven dissolution of CIZ1–RNA assemblies from the inactive X chromosome in mitosis” (Nucleic Acids Research, 2026).

What was measured:
[1] = tested on: C179WT (hCIZ1 C-terminal fragment) (Homo sapiens); experiment: EMSA; settings: 0.66 nM RNA; yeast tRNA 0.1 mg/ml; 10 mM Tris-HCl pH 7, 30 mM NaCl, 2.5 mM MgCl2, 0.1% IGEPAL CA-630, 0.1 mg/ml yeast tRNA, 1.5% RNaseOUT, 0.2 mM EDTA, 0.2 mM DTT, 30 C 20 min; 0.8% agarose/TBE …
[2] = target: human CIZ1-C179Δtail (human) (UniProt Q9ULV3); experiment: SEC-MALS; SEC-MALLS; 100 µl of >1 mg/ml purified protein, Superdex S200 10/300 GL, cleavage buffer (50 mM Tris-HCl pH 7, 150 mM NaCl, 1 mM EDTA, 1 mM DTT), 0.5 ml/min, room temperature (20 ± 2°C)
[3] = target: murine CIZ1 fragment C181 (mouse) (UniProt Q8VEH2); experiment: as above
[4] = target: the molecule itself; experiment: as above

Xist repeat E RNA probe
binding signal (% probe shifted at 5 µM protein) [1]: 99

human CIZ1-C179Δtail (from UniProt Q9ULV3-1 720-860) (domain or fragment)
stoichiometry N [2]: 2

murine CIZ1 fragment C181 (from UniProt Q8VEH2 665-845) (domain or fragment)
stoichiometry N [3]: 2

B1: human CIZ1-C179 (domain or fragment, UniProt Q9ULV3-1 720-898, looked up)
chain: EKEIAGQDEDHFITVDAVGCFEGDEEEEEDDEDEEEIEVEEELCKQVRSRDISREEWKGSETYSPNTAYGVDFLVPVMGYICRICHKFYHSNSGAQLSHCKSLGHFENLQKYKAAKNPSPTTRPVSRRCAINARNALTALFTSSGRPPSQPNTQDKTPSKVTARPSQPPLPRRSTRLKT
notes: the terminal residue is printed as Thr 898; also called hC179; C179WT; source: E. coli BL21 RP CodonPlus, purified (GSTrap, on-column PreScission cleavage, Superdex 200); not shown: GST, N-terminal, cleaved
stoichiometry N [4]: 2
